In the Human Domainome abundance scans (Beltran et al. 2025):
± gives the uncertainty stated by the source.

B1: Transcription factor SOX-11, residues 50 to 117; numbered along this chain, P35716 (parent)
chain: KRPMNAFMVWSKIERRKIMEQSPDMHNAEISKRLGKRWKMLKDSEKIPFIREAERLRLKHMADYPDYK

Variants of: B1
Assay: abundance fitness (aPCA) (normalised: wild type 0, dead -1); higher = more abundant; growth selection in yeast, the domain comes from the species named
Details: Homo sapiens

Compared with R55K, R55M is lower in abundance fitness: -0.177 ± 0.15 for the first, -0.521 ± 0.15 for the second.

First: R55Y
Second: R55H
The abundance fitness of the first is lower: -0.43 ± 0.061 for the first, -0.213 ± 0.06 for the second.

Compared with R55V, R55S is higher in abundance fitness: -0.343 ± 0.063 for the first, -0.146 ± 0.049 for the second.

First: R55N
Second: R55C
The abundance fitness of the first is higher: -0.087 ± 0.055 for the first, -0.416 ± 0.057 for the second.

R55E and R55W are within error of each other in abundance fitness: -0.017 ± 0.14 for the first, -0.277 ± 0.19 for the second.

Compared with R55D, R55G is lower in abundance fitness: -0.119 ± 0.058 for the first, -0.313 ± 0.055 for the second.

Compared with R55I, R55P is lower in abundance fitness: -0.246 ± 0.067 for the first, -0.868 ± 0.19 for the second.

R55F and L56E are within error of each other in abundance fitness: -0.356 ± 0.071 for the first, -0.212 ± 0.18 for the second.

L56I and L56Q are within error of each other in abundance fitness: -0.176 ± 0.058 for the first, -0.26 ± 0.18 for the second.

Going from L56D to L56M, the abundance fitness rises from -0.247 ± 0.069 to 0.079 ± 0.16.

Compared with L56N, L56S is higher in abundance fitness: -0.347 ± 0.06 for the first, -0.199 ± 0.051 for the second.

L56V and L56C are within error of each other in abundance fitness: -0.528 ± 0.063 for the first, -0.533 ± 0.078 for the second.

L56K and L56P are within error of each other in abundance fitness: -0.664 ± 0.23 for the first, -1.1 ± 0.22 for the second.

L56Y and L56G are within error of each other in abundance fitness: -0.386 ± 0.078 for the first, -0.39 ± 0.066 for the second.

Going from L56W to L56T, the abundance fitness rises from -0.888 ± 0.26 to -0.267 ± 0.076.

Going from L56F to L56R, the abundance fitness falls from -0.377 ± 0.056 to -0.532 ± 0.084.

Y67M and Y67L are within error of each other in abundance fitness: 0.222 ± 0.27 for the first, 0.098 ± 0.083 for the second.

Y67H and Y67A are within error of each other in abundance fitness: 0.089 ± 0.056 for the first, 0.149 ± 0.14 for the second.

Y67V and Y67C are within error of each other in abundance fitness: -0.214 ± 0.11 for the first, -0.048 ± 0.1 for the second.

Y67D and Y67W are within error of each other in abundance fitness: 0.283 ± 0.056 for the first, 0.17 ± 0.22 for the second.

Y67F and Y67R are within error of each other in abundance fitness: -0.097 ± 0.093 for the first, -0.163 ± 0.1 for the second.

Y67K and Y67P are within error of each other in abundance fitness: -0.007 ± 0.24 for the first, 0.151 ± 0.11 for the second.

Compared with Y67T, Y67N is higher in abundance fitness: -0.044 ± 0.12 for the first, 0.203 ± 0.053 for the second.

Going from Y67S to Y67I, the abundance fitness falls from 0.175 ± 0.073 to -0.027 ± 0.097.

M61E and M61S are within error of each other in abundance fitness: 0.046 ± 0.12 for the first, 0.047 ± 0.048 for the second.

M61N and M61P are within error of each other in abundance fitness: 0.116 ± 0.053 for the first, 0.008 ± 0.078 for the second.

Going from M61K to M61A, the abundance fitness rises from -0.205 ± 0.18 to 0.144 ± 0.065.

M61D and M61Q are within error of each other in abundance fitness: 0.09 ± 0.059 for the first, 0.077 ± 0.11 for the second.

Compared with M61W, M61R is higher in abundance fitness: -0.221 ± 0.16 for the first, 0.033 ± 0.065 for the second.

Going from M61T to M61Y, the abundance fitness falls from 0.058 ± 0.06 to -0.096 ± 0.052.

Going from M61F to M61C, the abundance fitness rises from -0.292 ± 0.06 to 0.107 ± 0.05.

M61V and M61G are within error of each other in abundance fitness: 0.048 ± 0.057 for the first, 0.07 ± 0.059 for the second.

M61I and M61H are within error of each other in abundance fitness: 0.011 ± 0.048 for the first, -0.086 ± 0.06 for the second.

P65R and P65Y are within error of each other in abundance fitness: -0.495 ± 0.43 for the first, -0.41 ± 0.37 for the second.

P65V and P65S are within error of each other in abundance fitness: -0.013 ± 0.47 for the first, 0.269 ± 0.36 for the second.

First: D66E
Second: D66A
The abundance fitness of the first is higher: 0.247 ± 0.18 for the first, -0.206 ± 0.14 for the second.

First: D66T
Second: D66Q
The abundance fitness of the first is lower: -0.657 ± 0.24 for the first, -0.115 ± 0.29 for the second.

D66Y and D66F are within error of each other in abundance fitness: -0.36 ± 0.087 for the first, -0.265 ± 0.11 for the second.

D66L and D66G are within error of each other in abundance fitness: -0.226 ± 0.11 for the first, -0.027 ± 0.12 for the second.

D66R and D66H are within error of each other in abundance fitness: -0.38 ± 0.31 for the first, -0.115 ± 0.18 for the second.

D66C and D66S are within error of each other in abundance fitness: -0.278 ± 0.13 for the first, -0.368 ± 0.091 for the second.

D66P and D66I are within error of each other in abundance fitness: -0.234 ± 0.28 for the first, -0.382 ± 0.13 for the second.

Going from D66V to H60L, the abundance fitness rises from -0.545 ± 0.18 to -0.273 ± 0.068.

H60T and H60G are within error of each other in abundance fitness: 0.103 ± 0.074 for the first, 0.142 ± 0.055 for the second.

Compared with H60R, H60E is higher in abundance fitness: -0.227 ± 0.064 for the first, 0.406 ± 0.14 for the second.

H60N and H60M are within error of each other in abundance fitness: 0.058 ± 0.055 for the first, -0.114 ± 0.19 for the second.

H60F and H60V are within error of each other in abundance fitness: -0.078 ± 0.058 for the first, -0.047 ± 0.061 for the second.

Going from H60Q to H60I, the abundance fitness falls from 0.222 ± 0.12 to -0.178 ± 0.066.

H60Y and H60P are within error of each other in abundance fitness: -0.03 ± 0.053 for the first, -0.142 ± 0.079 for the second.

First: H60W
Second: H60S
The abundance fitness of the first is lower: -0.607 ± 0.18 for the first, -0.017 ± 0.05 for the second.

First: H60C
Second: H60D
The abundance fitness of the first is lower: -0.031 ± 0.06 for the first, 0.136 ± 0.062 for the second.

D63N and K68N are within error of each other in abundance fitness: 0.113 ± 0.26 for the first, 0.163 ± 0.33 for the second.

First: K68C
Second: K68L
The abundance fitness of the first is higher: 0.354 ± 0.28 for the first, -0.642 ± 0.4 for the second.

K68S and K68T are within error of each other in abundance fitness: -0.093 ± 0.33 for the first, -0.139 ± 0.37 for the second.

Going from K68Y to L58C, the abundance fitness falls from 0.314 ± 0.24 to -0.116 ± 0.055.

L58W and L58G are within error of each other in abundance fitness: -0.222 ± 0.16 for the first, -0.076 ± 0.054 for the second.

Compared with L58T, L58D is higher in abundance fitness: -0.011 ± 0.071 for the first, 0.188 ± 0.056 for the second.

First: L58S
Second: L58P
The abundance fitness of the first is higher: -0.047 ± 0.046 for the first, -0.473 ± 0.12 for the second.

First: L58V
Second: L58N
The abundance fitness of the first is lower: -0.101 ± 0.052 for the first, 0.068 ± 0.054 for the second.

L58E and L58M are within error of each other in abundance fitness: -0.294 ± 0.16 for the first, -0.149 ± 0.13 for the second.

L58R and L58I are within error of each other in abundance fitness: -0.118 ± 0.069 for the first, -0.087 ± 0.054 for the second.

First: L58H
Second: L58Y
The abundance fitness of the first is higher: 0.065 ± 0.06 for the first, -0.195 ± 0.055 for the second.

Compared with A53R, A53N is higher in abundance fitness: -0.77 ± 0.087 for the first, -0.474 ± 0.11 for the second.

Going from A53P to A53G, the abundance fitness falls from -0.478 ± 0.11 to -0.946 ± 0.087.

A53T and A53V are within error of each other in abundance fitness: -0.649 ± 0.11 for the first, -0.749 ± 0.085 for the second.

First: A53E
Second: A53D
The abundance fitness of the first is higher: -0.622 ± 0.18 for the first, -0.961 ± 0.12 for the second.

A53L and A53W are within error of each other in abundance fitness: -0.747 ± 0.095 for the first, -0.91 ± 0.2 for the second.

First: A53I
Second: A53M
The abundance fitness of the first is lower: -0.709 ± 0.098 for the first, -0.33 ± 0.19 for the second.

First: A53C
Second: A53S
The abundance fitness of the first is lower: -0.728 ± 0.084 for the first, -0.506 ± 0.056 for the second.

A53H and A53F are within error of each other in abundance fitness: -0.741 ± 0.1 for the first, -0.64 ± 0.081 for the second.

A53Y and A53K are within error of each other in abundance fitness: -0.813 ± 0.09 for the first, -1.12 ± 0.34 for the second.

E54H and E54F are within error of each other in abundance fitness: -0.641 ± 0.097 for the first, -0.762 ± 0.085 for the second.

E54V and E54G are within error of each other in abundance fitness: -0.671 ± 0.074 for the first, -0.714 ± 0.085 for the second.

E54M and E54C are within error of each other in abundance fitness: -0.833 ± 0.34 for the first, -0.42 ± 0.089 for the second.

E54K and E54L are within error of each other in abundance fitness: -0.826 ± 0.24 for the first, -0.601 ± 0.083 for the second.

Going from E54I to E54A, the abundance fitness rises from -0.751 ± 0.091 to -0.425 ± 0.072.

Going from E54Q to E54R, the abundance fitness falls from -0.364 ± 0.16 to -0.74 ± 0.1.

E54P and E54T are within error of each other in abundance fitness: -0.925 ± 0.16 for the first, -0.7 ± 0.12 for the second.

E54D and E54Y are within error of each other in abundance fitness: -0.323 ± 0.066 for the first, -0.335 ± 0.067 for the second.

E54N and E54W are within error of each other in abundance fitness: -0.241 ± 0.063 for the first, -0.576 ± 0.36 for the second.

First: E52S
Second: E52T
The abundance fitness of the first is lower: -0.785 ± 0.072 for the first, -0.397 ± 0.079 for the second.

E52K and E52W are within error of each other in abundance fitness: -0.577 ± 0.16 for the first, -0.605 ± 0.14 for the second.

E52N and E52R are within error of each other in abundance fitness: -0.793 ± 0.12 for the first, -0.735 ± 0.076 for the second.

E52Q gave an abundance fitness of -1.04 ± 0.34.
